From the supplement of paper PMC9112550, “Optimization of the antimicrobial peptide Bac7 by deep mutational scanning” (BMC Biology, 2022)

tested on: Escherichia coli TOP10; experiment: shrunken log2 fold change of peptide-encoding DNA abundance (4.5 h post-induction vs induction); higher = less antimicrobial activity (less host growth inhibition); conditions: time post-induction: 4.5 h; library: site-saturation at positions 5, 18, 19, 20
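Further: peptides expressed intracellularly from a pBAD plasmid library in pooled LB shake-flask culture, induced with 0.3% L-arabinose, DNA abundance read by NGS, three biological replicates, DESeq2 with apeglm shrinkage.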

Sequence | shrunken log2 fold change
RRIRCRPPRLPRPRPRPTKQPRP | -0.0825
RRIRTRPPRLPRPRPRPAAKPRP | 0.217
RRIRQRPPRLPRPRPRPNRCPRP | -0.0278
RRIRPRPPRLPRPRPRPQVQPRP | -0.148
RRIRARPPRLPRPRPRPMTIPRP | -0.113
RRIRVRPPRLPRPRPRPPQKPRP | 0.23
RRIRVRPPRLPRPRPRPDTCPRP | -0.135
RRIRQRPPRLPRPRPRPWKNPRP | 0.033
RRIRLRPPRLPRPRPRPQYQPRP | -0.801
RRIRKRPPRLPRPRPRPKKQPRP | -0.119
RRIRLRPPRLPRPRPRPISMPRP | -0.801
RRIRVRPPRLPRPRPRPLAYPRP | 0.0656
RRIRCRPPRLPRPRPRPKSHPRP | -0.117
RRIRDRPPRLPRPRPRPATMPRP | 0.168
RRIRMRPPRLPRPRPRPYSYPRP | 0.0871
RRIRWRPPRLPRPRPRPSFIPRP | -0.545
RRIRGRPPRLPRPRPRPHKSPRP | 0.277
RRIRHRPPRLPRPRPRPWDTPRP | -0.164
RRIRPRPPRLPRPRPRPIVPPRP | -0.208
RRIRSRPPRLPRPRPRPQVNPRP | -0.00752
RRIRFRPPRLPRPRPRPMGWPRP | 0.0642
RRIRYRPPRLPRPRPRPHSDPRP | -0.0292

Sequence | shrunken log2 fold change
RRIRIRPPRLPRPRPRPLQAPRP | 0.0546
RRIRVRPPRLPRPRPRPYIDPRP | -0.372
RRIRIRPPRLPRPRPRPIFPPRP | -0.104
RRIRLRPPRLPRPRPRPREFPRP | 0.463
RRIRARPPRLPRPRPRPRRCPRP | 0.519
RRIRNRPPRLPRPRPRPMHRPRP | -0.0926
RRIRARPPRLPRPRPRPTNIPRP | -0.354
RRIRERPPRLPRPRPRPHDSPRP | -0.00973
RRIRTRPPRLPRPRPRPRFPPRP | 0.115
RRIRDRPPRLPRPRPRPYHFPRP | -0.277
RRIRYRPPRLPRPRPRPHIAPRP | -0.408
RRIRKRPPRLPRPRPRPPNPPRP | 0.657
RRIRNRPPRLPRPRPRPPECPRP | 0.015
RRIRIRPPRLPRPRPRPVSLPRP | -0.147
RRIRIRPPRLPRPRPRPAHTPRP | -0.588
RRIRERPPRLPRPRPRPYVEPRP | -0.534
RRIRPRPPRLPRPRPRPLEAPRP | 0.249
RRIRMRPPRLPRPRPRPWTAPRP | -0.0195
RRIRQRPPRLPRPRPRPDYKPRP | -0.0788
RRIRARPPRLPRPRPRPKTLPRP | 0.343
RRIRCRPPRLPRPRPRPTRQPRP | 0.503
RRIRVRPPRLPRPRPRPLTCPRP | -0.187

Sequence | shrunken log2 fold change
RRIRNRPPRLPRPRPRPHYNPRP | -0.619
RRIRHRPPRLPRPRPRPPDMPRP | 0.0267
RRIRDRPPRLPRPRPRPNDPPRP | -0.125
RRIRVRPPRLPRPRPRPEIGPRP | 0.0353
RRIRRRPPRLPRPRPRPSMQPRP | 0.404
RRIRQRPPRLPRPRPRPHSHPRP | 0.0496
RRIRTRPPRLPRPRPRPNNQPRP | -0.665
RRIRQRPPRLPRPRPRPLHQPRP | -0.172
RRIRGRPPRLPRPRPRPDYDPRP | 0.157
RRIRCRPPRLPRPRPRPPGKPRP | 0.141
RRIRLRPPRLPRPRPRPWWSPRP | -0.0019
RRIRSRPPRLPRPRPRPVMNPRP | 0.0346
RRIRPRPPRLPRPRPRPFDFPRP | -0.206
RRIRTRPPRLPRPRPRPCYWPRP | 0.0189
RRIRGRPPRLPRPRPRPICLPRP | 0.277
RRIRARPPRLPRPRPRPANIPRP | -0.19
RRIRIRPPRLPRPRPRPEHAPRP | 0.00666
RRIRCRPPRLPRPRPRPWYVPRP | -0.461
RRIRIRPPRLPRPRPRPIDTPRP | -0.00177
RRIRARPPRLPRPRPRPPRIPRP | 0.827
RRIRTRPPRLPRPRPRPTMCPRP | -0.416
RRIRPRPPRLPRPRPRPMWHPRP | -0.208

Sequence | shrunken log2 fold change
RRIRHRPPRLPRPRPRPNRNPRP | -1.01
RRIRPRPPRLPRPRPRPYYQPRP | -0.496
RRIRIRPPRLPRPRPRPNEPPRP | -0.0172
RRIRCRPPRLPRPRPRPHYVPRP | -0.78
RRIRTRPPRLPRPRPRPCSFPRP | -0.625
RRIRQRPPRLPRPRPRPCYDPRP | -0.357
RRIRERPPRLPRPRPRPQCTPRP | -0.012
RRIRKRPPRLPRPRPRPNIEPRP | 0.115
RRIRDRPPRLPRPRPRPWFWPRP | -0.0329
RRIRHRPPRLPRPRPRPCWIPRP | -0.00991
RRIRARPPRLPRPRPRPENVPRP | 0.251
RRIRCRPPRLPRPRPRPSFIPRP | -0.811
RRIRSRPPRLPRPRPRPSMNPRP | -0.454
RRIRFRPPRLPRPRPRPAAQPRP | 0.122
RRIRNRPPRLPRPRPRPSRRPRP | 0.27
RRIRWRPPRLPRPRPRPKLNPRP | 0.318
RRIRPRPPRLPRPRPRPRLDPRP | 0.0787
RRIRQRPPRLPRPRPRPQGGPRP | 0.00902
RRIRYRPPRLPRPRPRPWYFPRP | -0.15
RRIRKRPPRLPRPRPRPLGWPRP | 1.11
RRIRYRPPRLPRPRPRPILEPRP | 0.0174
RRIRERPPRLPRPRPRPFDPPRP | 0.0149

Sequence | shrunken log2 fold change
RRIRIRPPRLPRPRPRPGQIPRP | -0.0559
RRIRARPPRLPRPRPRPHMHPRP | -0.152
RRIRYRPPRLPRPRPRPIHPPRP | -0.418
RRIRPRPPRLPRPRPRPMHAPRP | 0.159
RRIRTRPPRLPRPRPRPNRGPRP | -0.0939
RRIRMRPPRLPRPRPRPTIPPRP | -0.316
RRIRVRPPRLPRPRPRPLQEPRP | 0.298
RRIRTRPPRLPRPRPRPNGHPRP | 0.0943
RRIRSRPPRLPRPRPRPGQKPRP | 0.0237
RRIRPRPPRLPRPRPRPQWEPRP | 0.155
RRIRIRPPRLPRPRPRPHRPPRP | -0.166
RRIRYRPPRLPRPRPRPSLYPRP | -1
RRIRERPPRLPRPRPRPNLHPRP | 0.504
RRIRWRPPRLPRPRPRPCNKPRP | -0.738
RRIRQRPPRLPRPRPRPSAQPRP | -0.223
RRIRVRPPRLPRPRPRPRDKPRP | -0.179
RRIRQRPPRLPRPRPRPEIVPRP | 0.143
RRIRHRPPRLPRPRPRPKEDPRP | 2.87
RRIRGRPPRLPRPRPRPLCWPRP | 0.774
RRIRSRPPRLPRPRPRPNQLPRP | -0.218
RRIRIRPPRLPRPRPRPLYKPRP | -0.622
